Test results published in patent US20150307603A1 (MODIQUEST B V, published 2015).
Non-standard residues stand in square brackets, D forms with d. No end group written: not given here. Cit = NC(=O)NCCC[C@H](N)C(=O)O

Assays:
[1] = biological target: T1, huPAD4-deiminated human recombinant histone 3 (human); test: ELISA, Ab 0.000128 ug/well
T1 construct: also called H3/p4
From the text: (§1) The resulting OD (y-axis) is a measure for antibody binding. H1-recombinant histone 1; H1/p2-huPAD2 recombinant histone 1; H1/p4-huPAD4 recombinant histone 1, and so forth (x-axis).

[2] = biological target: T2, huPAD4-deiminated human recombinant histone 2B (human); test: ELISA, Ab 0.000128 ug/well
T2 construct: also called H2B/p4
From the text: as §1

[3] = biological target: T3, human recombinant histone 4 (human, UniProt P62805 2-103); test: ELISA, Ab 0.000128 ug/well
From the text: as §1

[4] = biological target: T4, human recombinant histone 2B (human); test: ELISA, Ab 0.000128 ug/well
T4 construct: Non-deiminated; also called H2B
From the text: as §1

[5] = biological target: T5, huPAD2-deiminated human recombinant histone 2B (human); test: ELISA, Ab 0.000128 ug/well
T5 construct: also called H2B/p2
From the text: as §1

[6] = biological target: T6, huPAD2-deiminated human recombinant histone 3 (human); test: ELISA, Ab 0.000128 ug/well
T6 construct: also called H3/p2; histone 3/p2
From the text: as §1

[7] = biological target: T7, huPAD2-deiminated human recombinant histone 2A (human); test: ELISA, Ab 0.000128 ug/well
T7 construct: also called H2A/p2; histone 2A/p2
From the text: as §1

[8] = biological target: T8, peptide no. 9 (human histone 2A) (human, also: biotin-labelled); test: ELISA, Ab 0.00064 ug/well
T8 construct: also called peptide 9
T8 peptide: DNKKT[Cit]IIPRHL
Description: (§2) Biotin and citrulline-containing peptides derived from histone 2A were immobilized on NEUTRAVIDIN®-coated 96-well ELISA plates (0.3 μg/well). CFC-1 and CFC-0 were coated at the same concentration and served as positive and negative controls, respectively, for specific anti-citrulline reactivity and as coating controls. Non-coated wells were used to test for aspecific binding of the antibodies. […] Detection of bound anti-citrulline antibodies was performed by incubating the wells with rabbit anti-human HRP (1:2000) for 1 hour at RT followed by incubation with TMB substrate. The resulting OD (y-axis) is a measure for antibody binding.

[9] = biological target: T9, peptide no. 8 (human histone 2A) (human, also: biotin-labelled); test: ELISA, Ab 0.00064 ug/well
T9 construct: also called peptide 8
T9 peptide: AGNAA[Cit]DNKKTR
Description: as §2

[10] = biological target: T10, peptide no. 5 (human histone 2A) (human, also: biotin-labelled); test: ELISA, Ab 0.00064 ug/well
T10 construct: also called peptide 5
T10 peptide: VGRVH[Cit]LLRKGN
Description: as §2

[11] = biological target: T11, peptide no. 11 (human histone 2A) (human, also: biotin-labelled); test: ELISA, Ab 0.00064 ug/well
T11 construct: also called peptide 11
T11 peptide: LQLAI[Cit]NDEELN
Description: as §2

[12] = biological target: T12, peptide no. 2 (human histone 2A) (human, also: biotin-labelled); test: ELISA, Ab 0.00064 ug/well
T12 construct: also called peptide 2
T12 peptide: AKAKS[Cit]SSRAGL
Description: as §2

[13] = biological target: T13, peptide no. 7 (human histone 2A) (human, also: biotin-labelled); test: ELISA, Ab 0.00064 ug/well
T13 construct: also called peptide 7
T13 peptide: GNYSE[Cit]VGAGAP
Description: as §2

CFC-1 [14] = biological target: T14, CFC-1; test: ELISA, Ab 0.00064 ug/well
T14 construct: Positive control for anti-citrulline reactivity; also called cfc1 XG; Cfc1-peptide
Description: as §2

[15] = biological target: T15, peptide no. 1 (human histone 2A) (human, also: biotin-labelled); test: ELISA, Ab 0.00064 ug/well
T15 construct: also called peptide 1; AAASGXGKQGGK
T15 peptide: AAASG[Cit]GKQGGK
Description: as §2

[16] = biological target: T16, peptide no. 4 (human histone 2A) (human, also: biotin-labelled); test: ELISA, Ab 0.00064 ug/well
T16 construct: also called peptide 4
T16 peptide: QFPVG[Cit]VHRLLR
Description: as §2

[17] = biological target: T17, peptide no. 10 (human histone 2A) (human, also: biotin-labelled); test: ELISA, Ab 0.0032 ug/well
T17 construct: also called peptide 10
T17 peptide: TRIIP[Cit]HLQLAI
Description: as §2

[18] = biological target: T10, peptide no. 5 (human histone 2A); test: ELISA, Ab 0.0032 ug/well
Description: as §2

[19] = biological target: T18, peptide no. 12 (human histone 2A) (human, also: biotin-labelled); test: ELISA, Ab 0.0032 ug/well
T18 construct: also called peptide 12
T18 peptide: NKLLG[Cit]VTIAQG
Description: as §2

[20] = biological target: T11, peptide no. 11 (human histone 2A); test: ELISA, Ab 0.0032 ug/well
Description: as §2

[21] = biological target: T13, peptide no. 7 (human histone 2A); test: ELISA, Ab 0.0032 ug/well
Description: as §2

CFC-1 [22] = biological target: T14, CFC-1; test: ELISA, Ab 0.0032 ug/well
Description: as §2

[23] = biological target: T15, peptide no. 1 (human histone 2A); test: ELISA, Ab 0.0032 ug/well
Description: as §2

[24] = biological target: T16, peptide no. 4 (human histone 2A); test: ELISA, Ab 0.0032 ug/well
Description: as §2

[25] = biological target: T19, human recombinant histone 2A (human); test: ELISA, Ab 0.4 ug/well
T19 construct: Non-deiminated; also called H2A
From the text: as §1

[26] = biological target: T1, huPAD4-deiminated human recombinant …; test: ELISA, Ab 0.4 ug/well
From the text: as §1

[27] = biological target: T3, human recombinant histone 4; test: ELISA, Ab 0.4 ug/well
From the text: as §1

CFC-1 [28] = biological target: T14, CFC-1; test: ELISA, Ab 0.4 ug/well
From the text: as §1

[29] = biological target: T20, human recombinant histone 3 (human); test: ELISA, Ab 0.4 ug/well
T20 construct: Non-deiminated; also called H3
From the text: as §1

[30] = biological target: T5, huPAD2-deiminated human recombinant …; test: ELISA, Ab 0.4 ug/well
From the text: as §1

[31] = biological target: T21, huPAD4-deiminated human recombinant histone 2A (human); test: ELISA, Ab 0.4 ug/well
T21 construct: also called H2A/p4; histone 2A/p4
From the text: as §1

[32] = biological target: T7, huPAD2-deiminated human recombinant …; test: ELISA, Ab 0.4 ug/well
From the text: as §1

B1: RhmAb2.102 (antibody, human IgG1, lambda)
heavy: not shown
light: QSVLTQPPSMSAAPGQKVTISCSGSSSNIGNNYVSWYQQVPGTAPKLLIYDDNKRPSGIPGRFSGSKSATSATLGITGLQAGDEADYYCGSWDDNLSVVLFGGGTKLTVLGQPKAAPSVTLFPPSSEELQANKATLVCLISDFYPGAVTVAWKADSSPVKAGVETTTPSKQSNNKYAASSYLSLTPEQWKSHRSYSCQVTHEGSTVEKTVAPTECS
notes: Human IgG1 lambda; also called Rhm2.102
OD [1]: 0.06 OD450
OD [2]: 0.053 OD450
OD [3]: 0.06 OD450
OD [4]: 0.052 OD450
OD [5]: 0.051 OD450
OD [6]: 0.066 OD450
OD [7]: 0.063 OD450
OD [8]: 0.059 OD450
OD [9]: 0.057 OD450
OD [10]: 0.067 OD450
OD [11]: 0.06 OD450
OD [12]: 0.055 OD450
OD [13]: 0.057 OD450
OD (CFC-1 [14]): 0.621 OD450
OD [15]: 0.16 OD450
OD [16]: 0.063 OD450
OD [17]: 0.068 OD450
OD [18]: 0.063 OD450
OD [19]: 0.059 OD450
OD [20]: 0.057 OD450
OD [21]: 0.064 OD450
OD (CFC-1 [22]): 0.916 OD450
OD [23]: 0.3 OD450
OD [24]: 0.078 OD450
OD [25]: 0.071 OD450
OD [26]: 0.166 OD450
OD [27]: 0.091 OD450
OD (CFC-1 [28]): 3.12 OD450
OD [29]: 0.08 OD450
OD [30]: 0.06 OD450
OD [31]: 2.72 OD450
OD [32]: 3.08 OD450
